The target of the test is Full-length human AURKA^T288V (human) (UniProt O14965). Nature of the test: fluorescence polarisation; competitive displacement: 5 nM FITC-Tpx2^1–43 and 35 nM AURKA kept constant, unlabeled competitor (Bora or Tpx2) varied; 25 mM HEPES pH 7.5, 50 mM NaCl, 10 mM MgCl2, 0.1 mg/mL BSA, 0.01% Brij, 3 mM ADP, 2 mM DTT. (In general: Polarisation of emitted light reports the rotation of a fluorescent probe.)
Sequence of Full-length human AURKA^T288V (human) (O14965 other isoform, or with tags, fused parts or gaps T288V | T288V): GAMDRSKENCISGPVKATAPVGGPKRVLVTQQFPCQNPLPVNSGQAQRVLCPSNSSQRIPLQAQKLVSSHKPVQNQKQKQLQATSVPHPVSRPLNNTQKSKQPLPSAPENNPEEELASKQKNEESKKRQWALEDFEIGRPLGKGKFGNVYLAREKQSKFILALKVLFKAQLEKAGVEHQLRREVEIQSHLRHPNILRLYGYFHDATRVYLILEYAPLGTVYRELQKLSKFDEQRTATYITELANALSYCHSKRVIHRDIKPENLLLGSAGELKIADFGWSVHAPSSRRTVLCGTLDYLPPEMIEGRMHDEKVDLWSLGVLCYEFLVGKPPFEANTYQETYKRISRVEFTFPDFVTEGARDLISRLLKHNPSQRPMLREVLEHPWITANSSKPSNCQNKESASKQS

“pBora^18–120 (from UniProt Q6PGQ7 18-120) (domain or fragment)” had a fold less efficient displacement of FITC-Tpx2^1–43 than pBora^1–224 of 20 fold.

The record behind these values is publication PMC7997955.
